Data set [1] concerns the target T1, Substance P (SP) (UniProt P20366).
T1 sequence: RPKPQQFFGLM
The note with it: equilibrium dialysis rough estimate at 20 uM RNA, fraction bound 0.017.

Data set [2] deals with T2, Substance P (SP) (UniProt P20366).
T2 chain: RPKPQQFFGLM
The data set is described as follows: high affinity class 3 ligand; single-point equilibrium dialysis, Kd value only in figure. The note with it: protein: synthetic; tags: synthetic peptide, C-terminal amide; Sigma; 3H-SP from NEN. The method, then: Equilibrium dialysis experiments were performed with a Spectra/Por® (Spectrum; Houston, Tex.) equilibrium dialyzer, Spectra/Por® (Spectrum; Houston, Tex.) microcell dialysis chambers (200-µl chamber volumes), and 12000–14000 MWCO dialysis membranes (Spectrum; Houston, Tex.). These membranes allow passage of SP but not 107-nt RNAs. Sample volumes were 200 µl on each side of the membrane (i.e., 200 µl per chamber). All experiments were at room temperature in 1× SP binding buffer. RNAs (unlabeled) were denatured prior to re-equilibration in binding buffer as described above for Experiment B. For binding curves (FIG. 4), RNA concentrations between 50 nM and 20 µM were utilized. Single point K_d estimates for individual Experiment B ligands were performed with 200 nM or 1 µM RNA. […] Equilibrium dialysis initiated with ^3H-SP on one side of the membrane and in the absence of RNA was performed to determine the length of time required to attain equilibrium (~2.5 hours for Spectra/Por®-2 membranes); dialysis times for binding measurements were at least one hour longer than this determined time. Following equilibration, samples were withdrawn from the dialysis chambers, added to scintillation fluid, and counted.
Background: In equilibrium dialysis only unbound substance equilibrates across the membrane.

Consider “GGGAGCUCAGAAUAAACGCUCAANNNNNNNNNNNNNNNNNNNNNNNNNNNNNNNNNNNNNNNNNNNNNNNNNNNNNNNNNNNNUUCGACAUGAGGCCCGGAUCCGGC [unselected 60N RNA pool]”, for which the Kd with Substance P (SP) [1] was 1200 µM.

B1: ligand B32 (ssRNA)
RNA: GGGAGCUCAGAAUAAACGCUCAAAAAGGCACUGACCACCCUCAGGAAGAAUAACCGCGGUCACCCGCAUCCGAGUCUAUCAAUUUCGACAUGAGGCCCGGAUCCGGC
With B1, in the data set with Substance P (SP) [2], the binding result is recorded as “binds”.

What is called Kd is a measure of binding affinity in units of concentration.

Values taken from patent publication US5648214, “High-affinity oligonucleotide ligands to the tachykinin substance P” (University Research Corporation).
